Data reported in the supplement of paper PMC10567573.

B1: TRIM63 (parent)
chain: FRCPTCRHEVIMDRHGVYGLQRNL

Variants of: B1
Experiment: protein stability index of a GFP-peptide fusion (GPS, HEK-293T) (PSI 1-6); higher = more stable
Details: c terminus: a fixed tail appended
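Note: lentivirally expressed fusions sorted by FACS into six bins by GFP to DsRed ratio, PSI derived from sequencing read proportions per bin multiplied by bin number.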

Point of comparison: FRCPTCRHEVIMDRHGVYGLFRNL [Q21F], protein stability index 1.27. Against it:
- FRCPTCRHEVIMDRHGVYGLQNNL [R22N] — higher, 2.95
- FRCPTCRHEVIMDRHGVYGLQHNL [R22H] — higher, 2.17
- FRCPTCRHEVIMDRHGVYGLQKNL [R22K] — higher, 2.02
- FRCPTCRHEVIMDRHGVYGLQANL [R22A] — higher, 2.29
- FRCPTCRHEVIMDRHGVYGGQRNL [L20G] — higher, 1.66
- FRCPTCRHEVIMDRHGVYGAQRNL [L20A] — higher, 1.77
- FRCPTCRHEVIMDRHGVYGVQRNL [L20V] — higher, 2.71
- FRCPTCRHEVIMDRHGVYGPQRNL [L20P] — higher, 1.77
- FRCPTCRHEVIMDRHGVYGTQRNL [L20T] — higher, 2.81
- FRCPTCRHEVIMDRHGVYGQQRNL [L20Q] — higher, 2.07
- FRCPTCRHEVIMDRHGVYGCQRNL [L20C] — higher, 2.39
- FRCPTCRHEVIMDRHGVYGMQRNL [L20M] — higher, 1.81
- FRCPTCRHEVIMDRHGVYGYQRNL [L20Y] — higher, 1.99
- FRCPTCRHEVIMDRHGVYGNQRNL [L20N] — higher, 2.05
- FRCPTCRHEVIMDRHGVYGDQRNL [L20D] — higher, 2.42
- FRCPTCRHEVIMDRHGVYGWQRNL [L20W] — higher, 2.25
- FRCPTCRHEVIMDRHGVYGEQRNL [L20E] — higher, 2.27
- FRCPTCRHEVIMDRHGVYGIQRNL [L20I] — higher, 1.6
- FRCPTCRHEVIMDRHGVYGKQRNL [L20K] — higher, 1.51
- FRCPTCRHEVIMDRHGVYGHQRNL [L20H] — higher, 2.75
- FRCPTCRHEVIMDRHGVYGSQRNL [L20S] — higher, 2.11
- FRCPTCRHEVIMDRHGVYGRQRNL [L20R] — lower, 1.08
- FRCPTCRHEVIMDRHGVYGFQRNL [L20F] — higher, 2.02
- FRCPTCRHEVIMDRHGVYGLWRNL [Q21W] — higher, 2.31
- FRCPTCRHEVIMDRHGVYGLLRNL [Q21L] — higher, 3.19
- FRCPTCRHEVIMDRHGVYGLRRNL [Q21R] — higher, 1.98
- FRCPTCRHEVIMDRHGVYGLHRNL [Q21H] — higher, 1.86
- FRCPTCRHEVIMDRHGVYGLERNL [Q21E] — higher, 2.73
- FRCPTCRHEVIMDRHGVYGLSRNL [Q21S] — higher, 1.55
- FRCPTCRHEVIMDRHGVYGLARNL [Q21A] — higher, 1.66
- FRCPTCRHEVIMDRHGVYGLDRNL [Q21D] — higher, 2.1
- FRCPTCRHEVIMDRHGVYGLGRNL [Q21G] — higher, 2.42
- FRCPTCRHEVIMDRHGVYGLKRNL [Q21K] — higher, 2.02
- FRCPTCRHEVIMDRHGVYGLVRNL [Q21V] — higher, 1.59
- FRCPTCRHEVIMDRHGVYGLMRNL [Q21M] — higher, 1.63
- FRCPTCRHEVIMDRHGVYGLPRNL [Q21P] — higher, 1.96
- FRCPTCRHEVIMDRHGVYGLYRNL [Q21Y] — higher, 2.17
- FRCPTCRHEVIMDRHGVYGLIRNL [Q21I] — higher, 1.74
- FRCPTCRHEVIMDRHGVYGLCRNL [Q21C] — higher, 2.63
- FRCPTCRHEVIMDRHGVYGLNRNL [Q21N] — higher, 2.87
- FRCPTCRHEVIMDRHGLYGLQRNL [V17L] — higher, 2.08
- FRCPTCRHEVIMDRHGEYGLQRNL [V17E] — higher, 1.43
- FRCPTCRHEVIMDRHGHYGLQRNL [V17H] — higher, 2.23
- FRCPTCRHEVIMDRHGSYGLQRNL [V17S] — higher, 2.77
- FRCPTCRHEVIMDRHGGYGLQRNL [V17G] — higher, 3.09
- FRCPTCRHEVIMDRHGRYGLQRNL [V17R] — higher, 1.53
- FRCPTCRHEVIMDRHGPYGLQRNL [V17P] — higher, 2.26
- FRCPTCRHEVIMDRHGIYGLQRNL [V17I] — higher, 2.41
- FRCPTCRHEVIMDRHGYYGLQRNL [V17Y] — higher, 2.19
- FRCPTCRHEVIMDRHGNYGLQRNL [V17N] — higher, 2.28
- FRCPTCRHEVIMDRHGTYGLQRNL [V17T] — higher, 2.66
- FRCPTCRHEVIMDRHGMYGLQRNL [V17M] — higher, 1.69
- FRCPTCRHEVIMDRHGQYGLQRNL [V17Q] — higher, 3
- FRCPTCRHEVIMDRHGKYGLQRNL [V17K] — higher, 2.19
- FRCPTCRHEVIMDRHGFYGLQRNL [V17F] — higher, 2.75
- FRCPTCRHEVIMDRHGWYGLQRNL [V17W] — higher, 1.8
- FRCPTCRHEVIMDRHGDYGLQRNL [V17D] — higher, 1.58
- FRCPTCRHEVIMDRHGAYGLQRNL [V17A] — higher, 2.98
- FRCPTCRHEVIMDRHGCYGLQRNL [V17C] — higher, 2.47
- FRCPTCRHEVIMDRHGVYGLQRCL [N23C] — higher, 2.2
- FRCPTCRHEVIMDRHGVYGLQRFL [N23F] — higher, 2.02
- FRCPTCRHEVIMDRHGVYGLQRHL [N23H] — higher, 2.5
- FRCPTCRHEVIMDRHGVYGLQREL [N23E] — higher, 2.05
- FRCPTCRHEVIMDRHGVYGLQRSL [N23S] — higher, 2.14
- FRCPTCRHEVIMDRHGVYGLQRLL [N23L] — higher, 1.7
- FRCPTCRHEVIMDRHGVYGLQRML [N23M] — higher, 1.47
- FRCPTCRHEVIMDRHGVYGLQRRL [N23R] — higher, 2.54
- FRCPTCRHEVIMDRHGVYGLQRKL [N23K] — higher, 2.04
- FRCPTCRHEVIMDRHGVYGLQRPL [N23P] — higher, 1.56
- FRCPTCRHEVIMDRHGVYGLQRAL [N23A] — higher, 1.79
- FRCPTCRHEVIMDRHGVYGLQRIL [N23I] — higher, 1.89
- FRCPTCRHEVIMDRHGVYGLQRGL [N23G] — higher, 2.82
- FRCPTCRHEVIMDRHGVYGLQRDL [N23D] — higher, 2.55
- FRCPTCRHEVIMDRHGVYGLQRQL [N23Q] — higher, 2.67
- FRCPTCRHEVIMDRCGVYGLQRNL [H15C] — higher, 2.32
- FRCPTCRHEVIMDRDGVYGLQRNL [H15D] — higher, 2.08
- FRCPTCRHEVIMDRIGVYGLQRNL [H15I] — higher, 2.19
- FRCPTCRHEVIMDRVGVYGLQRNL [H15V] — higher, 3.01
- FRCPTCRHEVIMDRQGVYGLQRNL [H15Q] — higher, 3.54
- FRCPTCRHEVIMDRGGVYGLQRNL [H15G] — higher, 2.12
- FRCPTCRHEVIMDRMGVYGLQRNL [H15M] — higher, 2.71
- FRCPTCRHEVIMDRWGVYGLQRNL [H15W] — higher, 2.11
- FRCPTCRHEVIMDRPGVYGLQRNL [H15P] — higher, 2.66
- FRCPTCRHEVIMDRLGVYGLQRNL [H15L] — higher, 2.17
- FRCPTCRHEVIMDRNGVYGLQRNL [H15N] — higher, 2.13
- FRCPTCRHEVIMDREGVYGLQRNL [H15E] — higher, 2.43
- FRCPTCRHEVIMDRAGVYGLQRNL [H15A] — higher, 1.67
- FRCPTCRHEVIMDRKGVYGLQRNL [H15K] — higher, 2.16
- FRCPTCRHEVIMDRRGVYGLQRNL [H15R] — higher, 1.48
- FRCPTCRHEVIMDRTGVYGLQRNL [H15T] — higher, 2.46
- FRCPTCRHEVIMDRFGVYGLQRNL [H15F] — higher, 1.67
- FRCPTCRHEVIMDRYGVYGLQRNL [H15Y] — higher, 2.49
- FRCPTCRHEVIMDRSGVYGLQRNL [H15S] — higher, 2.44
